Assay results published in paper PMC10397247.
Each block holds one binder with its values, some of them ahead of it.

Columns and labels:
[1] = target: T1, 4H3666-AA; experiment: two-hybrid library CCmax;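 further: natural log of median RNA to DNA barcode read ratio; higher means stronger binding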
T1 chain: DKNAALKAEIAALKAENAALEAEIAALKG

[2] = target: T2, 4H3709-AA; experiment: two-hybrid library CCmax; details: mean of both orientations;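 further: natural log of median RNA to DNA barcode read ratio; higher means stronger binding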
T2 chain: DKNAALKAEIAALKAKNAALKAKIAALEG

[3] = target: T3, 4H391-AA; experiment: two-hybrid library CCmax; details: mean of both orientations;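 further: natural log of median RNA to DNA barcode read ratio; higher means stronger binding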
T3 chain: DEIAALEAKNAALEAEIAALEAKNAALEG

[4] = target: T4, 4H3920-AA; experiment: two-hybrid library CCmax; details: mean of both orientations;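 further: natural log of median RNA to DNA barcode read ratio; higher means stronger binding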
T4 chain: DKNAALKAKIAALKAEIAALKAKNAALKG

[5] = target: T5, 4H3939-AA; experiment: two-hybrid library CCmax; details: mean of both orientations
T5 chain: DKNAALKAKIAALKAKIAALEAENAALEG

[6] = target: T6, 4H428-AA; experiment: two-hybrid library CCmax; details: mean of both orientations
T6 chain: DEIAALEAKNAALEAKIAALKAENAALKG

[7] = target: T7, 4H478-AA; experiment: two-hybrid library CCmax; details: mean of both orientations
T7 chain: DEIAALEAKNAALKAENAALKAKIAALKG

[8] = target: T8, 4H497-AA; experiment: two-hybrid library CCmax; details: mean of both orientations
T8 chain: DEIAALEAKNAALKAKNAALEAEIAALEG

[9] = target: T9, 4H656-AA; experiment: two-hybrid library CCmax; details: mean of both orientations
T9 chain: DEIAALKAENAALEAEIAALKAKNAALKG

[10] = target: T10, 4H675-AA; experiment: two-hybrid library CCmax; details: mean of both orientations
T10 chain: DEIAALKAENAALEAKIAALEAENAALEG

[11] = target: T11, 4H971-AA; experiment: two-hybrid library CCmax; details: mean of both orientations
T11 chain: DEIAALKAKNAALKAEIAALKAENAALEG

[12] = target: T12, 4H72-bH; experiment: two-hybrid library CCNG1
T12 chain: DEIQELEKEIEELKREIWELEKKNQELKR

[13] = target: T13, 4H754-bH; experiment: two-hybrid library CCNG1
T13 chain: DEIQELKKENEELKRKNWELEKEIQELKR

[14] = target: T14, 4H797-bH; experiment: two-hybrid library CCNG1
T14 chain: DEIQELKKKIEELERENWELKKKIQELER

[15] = target: T15, 4H883-bH; experiment: two-hybrid library CCNG1
T15 chain: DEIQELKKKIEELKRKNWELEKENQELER

[16] = target: T16, 4H908-bH; experiment: two-hybrid library CCNG1
T16 chain: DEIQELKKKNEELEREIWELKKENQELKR

[17] = target: T17, 4H918-bH; experiment: two-hybrid library CCNG1
T17 chain: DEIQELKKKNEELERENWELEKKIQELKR

[18] = target: T18, 4H953-bH; experiment: two-hybrid library CCNG1
T18 chain: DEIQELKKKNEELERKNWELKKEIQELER

[19] = target: T19, 4H967-bH; experiment: two-hybrid library CCNG1
T19 chain: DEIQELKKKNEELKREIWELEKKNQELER

[20] = target: T20, 4H3969-AA; experiment: two-hybrid library CCmax
T20 chain: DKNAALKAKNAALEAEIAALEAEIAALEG

[21] = target: T21, 4H446-AA; experiment: two-hybrid library CCmax; details: mean of both orientations
T21 chain: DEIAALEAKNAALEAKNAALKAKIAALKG

[22] = target: T22, 4H464-AA; experiment: two-hybrid library CCmax; details: mean of both orientations
T22 chain: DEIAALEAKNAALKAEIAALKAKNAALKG

[23] = target: T23, 4H483-AA; experiment: two-hybrid library CCmax; details: mean of both orientations
T23 chain: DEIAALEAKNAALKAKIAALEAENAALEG

[24] = target: T24, 4H63-AA; experiment: two-hybrid library CCmax; details: mean of both orientations
T24 chain: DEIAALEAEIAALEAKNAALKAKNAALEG

[25] = target: T25, APC9141-AA; experiment: two-hybrid library CCmax
T25 chain: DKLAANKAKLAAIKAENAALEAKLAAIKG

[26] = target: T26, APC9182-AA; experiment: two-hybrid library CCmax; details: mean of both orientations
T26 chain: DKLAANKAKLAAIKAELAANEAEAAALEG

[27] = target: T27, APC9291-AA; experiment: two-hybrid library CCmax; details: mean of both orientations
T27 chain: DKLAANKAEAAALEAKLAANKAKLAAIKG

[28] = target: T28, APC9806-AA; experiment: two-hybrid library CCmax; details: mean of both orientations
T28 chain: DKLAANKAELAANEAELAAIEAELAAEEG

[29] = target: T29, 4H510-AA; experiment: two-hybrid library CCmax; details: mean of both orientations
T29 chain: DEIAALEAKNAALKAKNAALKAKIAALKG

[30] = target: T30, 4H_APH; experiment: two-hybrid library CCmax
T30 chain: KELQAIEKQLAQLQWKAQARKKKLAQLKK

[31] = target: T31, 4H_BCR; experiment: two-hybrid library CCmax; details: mean of both orientations
T31 chain: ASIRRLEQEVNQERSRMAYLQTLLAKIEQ

[32] = target: 4H_GCN4; experiment: two-hybrid library CCmax
Chain of 4H_GCN4 (chain, as listed by the source): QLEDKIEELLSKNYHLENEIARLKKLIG

[33] = target: GCN2_T; experiment: two-hybrid library CCmax
[34] = target: T32, O11-AA; experiment: two-hybrid library CCmax; details: mean of both orientations
T32 chain: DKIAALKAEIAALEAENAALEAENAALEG

[35] = target: T33, O13-AA; experiment: two-hybrid library CCmax; details: mean of both orientations
T33 chain: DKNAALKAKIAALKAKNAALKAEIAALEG

[36] = target: T34, O14-AA; experiment: two-hybrid library CCmax; details: mean of both orientations
T34 chain: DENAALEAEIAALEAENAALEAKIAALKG

[37] = target: T35, 4H968-bN; experiment: two-hybrid library CCNG1
T35 chain: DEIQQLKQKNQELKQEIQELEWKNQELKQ

Binder: DKNAALKAEIAALKAENAALEAEIAALKG [4H3666-AA]
- interaction score [1]: 0.925
- interaction score [2]: 1.48
- interaction score [3]: -1.26
- interaction score [4]: -1.45
- interaction score [5]: -1.61
- interaction score [6]: -1.27
- interaction score [7]: 0.407
- interaction score [8]: -1.84
- interaction score [9]: 0.306
- interaction score [10]: -2.19
- interaction score [11]: 1.3

Binder: DEIQELEKEIEELKREIWELEKKNQELKR [4H72-bH]
- interaction score [12]: 0.746
- interaction score [13]: -0.378
- interaction score [14]: 0
- interaction score [15]: 1.69
- interaction score [16]: 0.614
- interaction score [17]: 0.163
- interaction score [18]: 0.653
- interaction score [19]: 0.0764

Binder: DEIAALEAKNAALKAEIAALEAENAALEG [4H451-AA]
- interaction score [29]: -1.68
- interaction score [30]: -1.88
- interaction score [31]: -1.98
- interaction score [32]: -1.53
- interaction score [33]: -0.954
- interaction score [34]: -1.9
- interaction score [35]: -1.74
- interaction score [36]: 0.209

Binder: DEIQQLKQKNQELKQEIQELEWKNQELKQ [4H968-bN]
- interaction score [37]: 0.264

Other lines, results leading:

- interaction score [20]: -1.61
- interaction score [21]: 1.05
- interaction score [22]: -0.91
- interaction score [23]: -1.99
- interaction score [24]: -1.93
Binder: DKNAALKAKNAALEAEIAALEAEIAALEG [4H3969-AA]

- interaction score [25]: -2.08
- interaction score [26]: -1.82
- interaction score [27]: -1.86
- interaction score [28]: -1.67
Binder: DKLAANKAKLAAIKAENAALEAKLAAIKG [APC9141-AA]
